For 83 variants, reverse-splicing fitness results are on record in the RNAGym collection of RNA variant scans (doi:10.1093/molbev/msab373).

B1: Azoarcus group I ribozyme (parent)
chain: GUGCCUUGCGCCGGGAAACCACGCAAGGGAUGGUGUCAAAUUCGGCGAAACCUAAGCGCCCGCCCGGGCGUAUGGCAACGCCGAGCCAAGCUUCGGCGCCUGCGCCGAUGAAGGUGUAGAGACUAGACGGCACCCACCUAAGGCAAACGCUAUGGUGAAGGCAUAGUCCAGGGAGUGGCGAAAGUCACACAAACCGG

The variants in the data set derive from B1. Nature of the data set: reverse-splicing fitness (ratio to wild type); higher = more active; in vitro selection; Mg2+ level not given. The method in brief:
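An in vitro group I ribozyme library with randomized positions was T7-transcribed and gel-purified. In triplicate, 10 pmol RNA in EPPS pH 7.5 was reacted with 50 pmoles of a 30-nt RNA substrate for 1 h at 37 °C across several added MgCl2 levels (1–48 mM), then stopped with EDTA. Products were reverse transcribed from a substrate-complementary primer, PCR-amplified and sequenced (HiSeq 4000). Fitness is a variant's read proportion after selection over that before, normalised to wild type.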
As for C82G A145U C150A U176A, the reverse-splicing fitness was 0.0428.
Consider C82G A145U C150A U176C, for which the reverse-splicing fitness was determined as 0.0384.
Consider C82G A145U C150A U176G, for which the reverse-splicing fitness came to 0.0186.
In the case of C82U A111C A120C A145C U176C it was 0.0155; in that of C82U A111C A120C A145C U176A, 0.00981.
In the case of C82U A111C A120C A145C U176G it was 0.00562.
In the case of C82G A145G C150G U176C it was 0.0452; in that of C82G A145G C150G U176A, 0.0343; in that of C82G A145G C150G U176G, 0.0127.
In the case of C82G C150U U176C, the reverse-splicing fitness was 0.206.
In the case of C82G C150U U176G it was 0.0728; in that of C82G C150U U176A, 0.181; in that of C82G A145G C150A, 0.0607.
On to C82G A145G C150G, for which the reverse-splicing fitness was 0.05.
C82G A145G C150U: the reverse-splicing fitness is 0.401.
C82U A111C A120C A145C C150G C169U U176A: the reverse-splicing fitness is 0.0102.
For the variant C82U A111C A120C A145C C150G C169U U176G, the reverse-splicing fitness amounted to 0.00551.
For C82U A111C A120C A145C C150G C169U U176C, the reverse-splicing fitness was 0.0117.
As for C82G U176C, the figure is 0.352; as for C82G U176G, 0.14.
Turning to C82G U176A, the reverse-splicing fitness was 0.364.
On to C82G A145U C150U C169G U176C, for which the reverse-splicing fitness came to 0.0131.
As for C82G A145U C150U C169G U176G, the reverse-splicing fitness is 0.00545.
Consider C82G A145U C150U C169G U176A, for which the reverse-splicing fitness was 0.0117.
As for C82U A111C A120C A145C C150A C169U U176A, the figure is 0.0156; as for C82U A111C A120C A145C C150A C169U U176C, 0.0117; as for C82U A111C A120C A145C C150A C169U U176G, 0.00596.
As for C82G A145U C150U, the figure is 0.321.
In the case of C82G A145U C150A it was 0.0405; in that of C82G A145U C150G, 0.0473; in that of C82G A145G C150G C169A, 0.00944.
As for C82G A145G C150G C169U, the reverse-splicing fitness is 0.011.
As for C82G A145G C150G C169G, the figure is 0.00848.
As for C82G C169U, the figure is 0.017.
As for C82G C169A, the reverse-splicing fitness turned out to be 0.00968.
As to C82G C169G, the reverse-splicing fitness came out at 0.0111.
With C82G A120U C169U, the reverse-splicing fitness was 0.00719.
In the case of C82G A145G C150U C169G U176C it was 0.0184; in that of C82G A145G C150U C169G U176G, 0.00499; in that of C82G A145G C150U C169G U176A, 0.0145.
On to C82G A145G C150A U176A, for which the reverse-splicing fitness amounted to 0.0509.
As for C82G A145G C150A U176G, the figure is 0.0244; as for C82G A145G C150A U176C, 0.0688.
For C82G A145C C150A C169A U176C, the reverse-splicing fitness was determined as 0.0049.
C82G A145C C150A C169A U176A: the reverse-splicing fitness amounted to 0.0106.
In the case of C82G A145C C150A C169A U176G it was 0.00515.
For the variant C82G A145G C169G U176G, the reverse-splicing fitness is 0.00454.
In the case of C82G A145G C169G U176A, the reverse-splicing fitness came to 0.0176.
As for C82G A145G C169G U176C, the reverse-splicing fitness turned out to be 0.0279.
For C82G A145U C150G C169U U176G, the reverse-splicing fitness amounted to 0.0049.
In the case of C82G A145U C150G C169U U176A it was 0.00876.
As for C82G A145U C150G C169U U176C, the reverse-splicing fitness is 0.0119.
In the case of C82G C150A it was 0.0416; in that of C82G C150G, 0.0318; in that of C82G C150U, 0.252.
As for C82G A145C C150U C169A U176G, the reverse-splicing fitness was 0.00476.
In the case of C82G A145C C150U C169A U176C it was 0.00579; in that of C82G A145C C150U C169A U176A, 0.0111.
For the variant C82G A120U C169G U176G, the reverse-splicing fitness stood at 0.00147.
As for C82G C169U U176C, the reverse-splicing fitness came to 0.0165.
Regarding C82G C169U U176A, the reverse-splicing fitness turned out to be 0.0135.
Regarding C82G C169U U176G, the reverse-splicing fitness was found to be 0.00463.
As for C82G A145C C169A U176A, the figure is 0.0121.
For the variant C82G A145C C169A U176G, the reverse-splicing fitness came to 0.00481.
As to C82G A145C C169A U176C, the reverse-splicing fitness amounted to 0.00541.
For C82U A111C A120C A145C C150A U176A, the reverse-splicing fitness was determined as 0.00991.
In the case of C82U A111C A120C A145C C150A U176C it was 0.0116; in that of C82U A111C A120C A145C C150A U176G, 0.00522; in that of C82G C150G C169G U176G, 0.00511.
For the variant C82G C150G C169G U176A, the reverse-splicing fitness worked out at 0.00727.
As for C82G C150G C169G U176C, the figure is 0.00598; as for C82G C150G C169A, 0.00919; as for C82G C150G C169G, 0.00811.
In the case of C82G C150G C169U it was 0.00971.
C82G A145G C169U U176C: the reverse-splicing fitness was determined as 0.0155.
As for C82G A145G C169U U176G, the figure is 0.00412; as for C82G A145G C169U U176A, 0.0138.
Turning to C82G A145C C150G C169A U176C, the reverse-splicing fitness came to 0.00634.
For the variant C82G A145C C150G C169A U176A, the reverse-splicing fitness was 0.00807.
Turning to C82G A145C C150G C169A U176G, the reverse-splicing fitness came out at 0.00487.
As for C82U A111C A120C A145G, the figure is 0.0265; as for C82U A111C A120C A145C, 0.0222; as for C82G A145G C150A C169G, 0.00861.
